The target of this series is T1, AcrR (Escherichia coli BW25113) (UniProt P0ACS9).
T1 sequence: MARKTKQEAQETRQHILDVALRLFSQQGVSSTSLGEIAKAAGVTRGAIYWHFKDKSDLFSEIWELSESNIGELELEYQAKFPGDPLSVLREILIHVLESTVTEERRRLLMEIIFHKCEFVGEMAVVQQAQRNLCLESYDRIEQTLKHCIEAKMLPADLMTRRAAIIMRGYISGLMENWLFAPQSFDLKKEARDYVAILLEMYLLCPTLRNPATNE
The series is described as follows: EMSA. The conditions noted are these: 10 mM Tris-HCl pH 7.5, 50 mM KCl, 1 mM DTT, 5 mM MgCl2, 1 ug poly(dI-dC), 0.05% NP-40, 5% glycerol, 20 uL with 25 fmol DNA (protein stock in 200 mM NaCl, 20 mM …).
For the sequence “CTTTGATAGTCATATATTCCACCAGCTATTTGTTAGTGAATAAAAGGTTGCCTGTAAAATTACAAAAACCTTACGCAGCGTCAAGCGGAATCGTGTCAATCATTGCGACAAATCAATCCTGTGCCTAAGCATTACGCGACTGACTCGCCTCACTCTTCCTTTGGGCTTGAGACCACATGGGGTCGGCGCCCCGAATTTTAAAGGGCAATTACGATAAAAATGTGATTTTCATCACGATTTAGGTGCAGC (double strand) [gapAp 249 bp]”, the binding entry is “no binding”.

For “TGTTCATATGTAAACCTCGAGTGTCCGATTTCAAATTGGTCAATGGTCAAAAGTTAATAAACCCATTGCTGCGTTTATATTATCGTCGTGCTATGGTACATACATTCACAAATGTATGTAAATCTAACGCCTGTAAATTCACGAACATATGGCACGAAAAACCAAACAAGAAGCGCAAG (double strand) [acrABp 179 bp]”, the binding result is on record as “binds”.

Consider “CAAAGTAAAGTGGTCAAGCCCCGCGCATAGCGCAAGCTTTGGCAGAAGAAAGGACTAAAGCGCGTTGCGCCAGTGCTGCTCACCTACGAGCAAGATAGTGGATGAGGTACGAAGATGGGTAAATGTAGAAAATAACGTCCTGAACAAATTGTCCATAATATTACAATTATCCGCAGTGTTGCTTCTCGTCATCGCGGATGATAATTGTCCTCGGTAGTTGAACACGCCTGATTTGTATCATAGCTTAAGAATTAACTCAAAATATTTTCACTTCTTTACCTGAGCG (double strand) [mdtUJIp 286 bp]”, for which the binding result was “binds”.

For “GTGGACTAAATTATCGCCATTACTGCGCTTTAAATGACCTTTATGTTCAATATTTTTTCAATCTAGCAGTGGGTTTTCATTTTTGCAAACTCAATTTAACATTTGACAAACATTTAGTTTGCATACAGATTCGAATGGTGGTCATTATATTTTACGCTTTGATAACGAGCGGAAAACAAACCAAAGGCGAAGAATCATGGAAACCAATATCGTTGAAGTAGAGAAC (double strand) [puuAp 226 bp]”, the binding result was “binds”.

The values are drawn from PMC9769551.
